The source of these data is patent publication US20180362645A1.

Holding throughout (assay): cell-based or functional assay
One assay concerns the target T1, VPAC2.
T1 sequence (P41587 whole entry, species assumed, looked up): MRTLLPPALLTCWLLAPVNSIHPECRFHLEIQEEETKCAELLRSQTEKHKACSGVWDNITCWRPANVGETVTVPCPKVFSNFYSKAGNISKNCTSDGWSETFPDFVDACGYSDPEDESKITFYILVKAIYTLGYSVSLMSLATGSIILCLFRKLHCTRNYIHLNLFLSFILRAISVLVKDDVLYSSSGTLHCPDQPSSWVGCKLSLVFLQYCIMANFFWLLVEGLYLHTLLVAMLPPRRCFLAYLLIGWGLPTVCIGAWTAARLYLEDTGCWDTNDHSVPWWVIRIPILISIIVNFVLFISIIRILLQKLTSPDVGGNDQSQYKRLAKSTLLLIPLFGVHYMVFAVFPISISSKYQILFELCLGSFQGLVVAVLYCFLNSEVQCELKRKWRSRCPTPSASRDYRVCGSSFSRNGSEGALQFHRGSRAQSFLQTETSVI

For assay [1], the target named is human pituitary adenylate cyclase-activating polypeptide type I receptor (human) (UniProt P41586).
Sequence of human pituitary adenylate cyclase-activating polypeptide type I receptor (human) (P41586 21-468): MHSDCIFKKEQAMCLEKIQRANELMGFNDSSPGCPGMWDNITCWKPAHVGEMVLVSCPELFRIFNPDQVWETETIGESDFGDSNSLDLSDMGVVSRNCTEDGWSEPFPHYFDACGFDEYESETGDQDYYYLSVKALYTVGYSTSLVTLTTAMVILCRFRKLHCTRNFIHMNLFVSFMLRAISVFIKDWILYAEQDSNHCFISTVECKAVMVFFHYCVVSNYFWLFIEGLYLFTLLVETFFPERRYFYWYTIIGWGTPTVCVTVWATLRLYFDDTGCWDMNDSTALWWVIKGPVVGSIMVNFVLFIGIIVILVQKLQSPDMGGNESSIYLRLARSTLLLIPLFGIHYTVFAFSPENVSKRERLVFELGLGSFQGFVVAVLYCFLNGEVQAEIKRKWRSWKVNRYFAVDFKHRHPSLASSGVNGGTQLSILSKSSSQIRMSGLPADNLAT
Another assay addresses T2, VPAC1.
T2 sequence (P32241 whole entry, species assumed, looked up): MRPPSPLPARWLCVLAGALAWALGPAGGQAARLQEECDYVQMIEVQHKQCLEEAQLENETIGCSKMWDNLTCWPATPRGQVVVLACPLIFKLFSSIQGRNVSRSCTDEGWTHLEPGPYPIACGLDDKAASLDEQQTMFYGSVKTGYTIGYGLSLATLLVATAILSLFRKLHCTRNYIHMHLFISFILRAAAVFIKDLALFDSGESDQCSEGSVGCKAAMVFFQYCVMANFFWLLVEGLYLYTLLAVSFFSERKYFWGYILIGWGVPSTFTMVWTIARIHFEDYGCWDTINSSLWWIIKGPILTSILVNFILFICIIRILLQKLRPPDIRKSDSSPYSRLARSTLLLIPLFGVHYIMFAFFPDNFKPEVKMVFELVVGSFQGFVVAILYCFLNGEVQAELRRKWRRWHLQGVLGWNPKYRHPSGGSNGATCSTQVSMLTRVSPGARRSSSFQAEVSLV

Sequence of Maxadilan (P30659 24-84 limits assumed): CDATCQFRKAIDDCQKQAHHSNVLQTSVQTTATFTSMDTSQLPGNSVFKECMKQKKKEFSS

With “Maxadilan (from UniProt P30659 24-84) (ligand)”, in the assay with VPAC2, the VPAC2 EC50 (agonist activity) is above 1000 nM. For the same substance, in assay [1], the PAC1 EC50 (agonist activity) is 0.06 nM. The same substance showed a VPAC1 EC50 (agonist activity) with VPAC1 above 1000 nM.
